How the values were obtained:
OsNF-YB7-His = target: T1, OsNF-YB7-His (Oryza sativa, UniProt A6BLV7 1-254); test: EMSA; Beyotime EMSA/Gel-Shift kit (GS009), manufacturer's conditions; 2 or 4 uM protein in Figure 6G; buffer, salt, pH and temperature not stated; details: protein: recombinant, tags: His (pET-28a), blunt
T1 sequence: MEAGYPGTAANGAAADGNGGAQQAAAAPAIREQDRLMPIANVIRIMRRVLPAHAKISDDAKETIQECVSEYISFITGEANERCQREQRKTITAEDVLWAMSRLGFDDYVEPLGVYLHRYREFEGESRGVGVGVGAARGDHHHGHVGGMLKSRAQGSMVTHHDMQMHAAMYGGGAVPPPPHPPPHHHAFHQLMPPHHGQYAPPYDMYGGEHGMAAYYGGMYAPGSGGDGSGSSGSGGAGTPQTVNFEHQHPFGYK

OsGLK1-MBP = target: T2, OsGLK1-MBP (Oryza sativa, UniProt Q5Z5I4 1-455); test: as above; details: protein: recombinant; tags: MBP (pMAL-c5X); label: biotin (3' hydroxyl end of both strands); blunt
T2 sequence: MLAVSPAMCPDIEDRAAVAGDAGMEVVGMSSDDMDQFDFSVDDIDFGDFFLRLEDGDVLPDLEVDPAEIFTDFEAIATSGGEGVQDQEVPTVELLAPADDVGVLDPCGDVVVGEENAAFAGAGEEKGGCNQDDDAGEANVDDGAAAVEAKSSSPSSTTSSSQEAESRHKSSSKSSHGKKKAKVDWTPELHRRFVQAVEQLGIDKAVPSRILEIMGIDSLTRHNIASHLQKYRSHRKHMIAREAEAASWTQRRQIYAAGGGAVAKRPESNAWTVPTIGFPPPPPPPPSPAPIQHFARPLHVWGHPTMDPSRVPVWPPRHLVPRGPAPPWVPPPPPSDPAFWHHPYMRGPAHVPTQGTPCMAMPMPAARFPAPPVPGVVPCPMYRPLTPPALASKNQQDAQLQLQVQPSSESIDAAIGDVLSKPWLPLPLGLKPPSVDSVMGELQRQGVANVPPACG

[1] = label: biotin (3' hydroxyl end of both strands)

B1: OsPORA promoter probe (dsDNA)
DNA 1: TACGAAAAAATATCCCACCACGTGTCGCTTTCACAGGACAAT
DNA 2: ATTGTCCTGTGAAAGCGACACGTGGTGGGATATTTTTTCGTA
Question: Does B1 bind (OsNF-YB7-His; [1])?
Answer: Result: binds

Question: Does B1 bind (OsGLK1-MBP)?
Answer: Result: binds

B2: OsLHCB4 promoter probe (dsDNA)
DNA 1: CCCAATCCCAGCCCTCCACGTGTCACCAACCCCATGGC
DNA 2: GCCATGGGGTTGGTGACACGTGGAGGGCTGGGATTGGG
Question: Does B2 bind (OsNF-YB7-His; [1])?
Answer: Result: binds

Question: Does B2 bind (OsGLK1-MBP)?
Answer: Result: binds

B3: OsGLK1 promoter probe (dsDNA)
DNA 1: TTTTGCAGAAGCGACCAAGCTGCACTTGCGCTCGCGGACAAGGCAACCCA
DNA 2: TGGGTTGCCTTGTCCGCGAGCGCAAGTGCAGCTTGGTCGCTTCTGCAAAA
Question: Does B3 bind (OsNF-YB7-His; label: biotin)?
Answer: Result: no binding

Reference: article PMC11407766, “OsNF-YB7 inactivates OsGLK1 to inhibit chlorophyll biosynthesis in rice embryo”
